Assays:
mouse VEGFR1 [1] = biological target: T1, mouse VEGFR1 (Mouse, UniProt P35969 23-759, limits assumed); assay: SPR (Biacore), 25 C, n=1
T1 construct: also called VEGFR1 Mouse
T1 sequence (looked up): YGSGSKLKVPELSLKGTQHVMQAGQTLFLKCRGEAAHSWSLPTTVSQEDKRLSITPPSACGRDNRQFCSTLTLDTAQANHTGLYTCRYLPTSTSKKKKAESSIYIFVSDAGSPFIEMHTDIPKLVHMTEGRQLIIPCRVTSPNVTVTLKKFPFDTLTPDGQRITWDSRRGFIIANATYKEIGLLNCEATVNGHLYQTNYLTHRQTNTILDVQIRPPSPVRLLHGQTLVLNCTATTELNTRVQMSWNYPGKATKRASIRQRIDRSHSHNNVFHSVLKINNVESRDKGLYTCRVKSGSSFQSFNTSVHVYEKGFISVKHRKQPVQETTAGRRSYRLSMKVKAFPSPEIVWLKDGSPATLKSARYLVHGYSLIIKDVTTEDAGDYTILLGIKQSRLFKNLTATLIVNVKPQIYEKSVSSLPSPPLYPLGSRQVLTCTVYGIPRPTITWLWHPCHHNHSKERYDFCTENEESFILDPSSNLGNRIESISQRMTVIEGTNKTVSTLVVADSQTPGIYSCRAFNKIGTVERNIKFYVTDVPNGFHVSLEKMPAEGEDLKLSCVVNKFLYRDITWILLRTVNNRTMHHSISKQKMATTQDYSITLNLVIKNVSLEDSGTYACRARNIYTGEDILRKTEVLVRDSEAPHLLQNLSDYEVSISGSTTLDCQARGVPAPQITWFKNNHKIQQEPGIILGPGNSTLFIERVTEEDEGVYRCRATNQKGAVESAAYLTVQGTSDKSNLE

mouse VEGFR3 = biological target: T2, mouse VEGFR3 (Mouse, UniProt P35917 25-775, limits assumed); assay: SPR (Biacore), 25 C
T2 construct: also called VEGFR3 Mouse
T2 sequence (looked up): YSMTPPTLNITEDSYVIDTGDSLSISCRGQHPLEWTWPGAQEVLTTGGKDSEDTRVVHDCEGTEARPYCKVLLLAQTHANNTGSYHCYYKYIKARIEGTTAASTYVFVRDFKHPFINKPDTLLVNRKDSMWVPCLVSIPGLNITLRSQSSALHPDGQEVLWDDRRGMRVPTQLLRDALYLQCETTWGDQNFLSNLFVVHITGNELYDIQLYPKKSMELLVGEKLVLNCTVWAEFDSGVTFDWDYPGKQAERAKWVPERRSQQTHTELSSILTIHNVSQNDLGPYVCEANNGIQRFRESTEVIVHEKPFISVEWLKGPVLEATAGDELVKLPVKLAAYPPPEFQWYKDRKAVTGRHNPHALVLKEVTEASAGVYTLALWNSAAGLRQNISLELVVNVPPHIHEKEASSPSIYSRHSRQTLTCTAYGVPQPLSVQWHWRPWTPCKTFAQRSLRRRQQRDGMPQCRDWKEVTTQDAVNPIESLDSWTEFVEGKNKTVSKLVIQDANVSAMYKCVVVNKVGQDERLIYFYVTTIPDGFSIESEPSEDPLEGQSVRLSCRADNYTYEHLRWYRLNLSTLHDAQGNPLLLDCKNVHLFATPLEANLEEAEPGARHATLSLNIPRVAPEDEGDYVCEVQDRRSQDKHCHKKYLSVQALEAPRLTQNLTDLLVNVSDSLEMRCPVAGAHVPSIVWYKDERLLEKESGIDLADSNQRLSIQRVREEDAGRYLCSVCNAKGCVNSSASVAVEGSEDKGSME

human VEGFR2 = biological target: T3, human VEGFR2 (Human, UniProt P35968 20-764, limits assumed); assay: SPR (Biacore), 25 C
T3 construct: also called VEGFR2 Human
T3 sequence (P35968 20-764 limits assumed): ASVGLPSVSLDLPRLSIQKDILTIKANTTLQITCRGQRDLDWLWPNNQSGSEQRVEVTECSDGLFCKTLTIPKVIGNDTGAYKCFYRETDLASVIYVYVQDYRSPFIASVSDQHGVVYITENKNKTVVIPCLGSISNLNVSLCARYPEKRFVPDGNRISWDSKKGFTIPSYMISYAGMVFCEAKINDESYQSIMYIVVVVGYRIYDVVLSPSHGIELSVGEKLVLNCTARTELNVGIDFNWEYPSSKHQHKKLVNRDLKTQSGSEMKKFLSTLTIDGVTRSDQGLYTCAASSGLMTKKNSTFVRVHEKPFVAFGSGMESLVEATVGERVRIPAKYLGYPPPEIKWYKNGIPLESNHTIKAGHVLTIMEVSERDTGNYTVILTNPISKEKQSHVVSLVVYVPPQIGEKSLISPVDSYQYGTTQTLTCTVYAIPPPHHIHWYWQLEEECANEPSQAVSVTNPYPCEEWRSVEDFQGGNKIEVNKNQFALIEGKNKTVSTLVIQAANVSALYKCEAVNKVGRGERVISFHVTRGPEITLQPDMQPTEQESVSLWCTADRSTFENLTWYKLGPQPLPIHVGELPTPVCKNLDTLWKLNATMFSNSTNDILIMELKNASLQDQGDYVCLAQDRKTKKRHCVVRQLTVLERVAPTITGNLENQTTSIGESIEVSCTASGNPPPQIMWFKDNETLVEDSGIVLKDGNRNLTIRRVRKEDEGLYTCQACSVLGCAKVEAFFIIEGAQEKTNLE

mouse VEGFR2 = biological target: T4, mouse VEGFR2 (Mouse, UniProt P35918 20-762, limits assumed); assay: SPR (Biacore), 25 C
T4 construct: also called VEGFR2 Mouse
T4 sequence (P35918 20-762 limits assumed): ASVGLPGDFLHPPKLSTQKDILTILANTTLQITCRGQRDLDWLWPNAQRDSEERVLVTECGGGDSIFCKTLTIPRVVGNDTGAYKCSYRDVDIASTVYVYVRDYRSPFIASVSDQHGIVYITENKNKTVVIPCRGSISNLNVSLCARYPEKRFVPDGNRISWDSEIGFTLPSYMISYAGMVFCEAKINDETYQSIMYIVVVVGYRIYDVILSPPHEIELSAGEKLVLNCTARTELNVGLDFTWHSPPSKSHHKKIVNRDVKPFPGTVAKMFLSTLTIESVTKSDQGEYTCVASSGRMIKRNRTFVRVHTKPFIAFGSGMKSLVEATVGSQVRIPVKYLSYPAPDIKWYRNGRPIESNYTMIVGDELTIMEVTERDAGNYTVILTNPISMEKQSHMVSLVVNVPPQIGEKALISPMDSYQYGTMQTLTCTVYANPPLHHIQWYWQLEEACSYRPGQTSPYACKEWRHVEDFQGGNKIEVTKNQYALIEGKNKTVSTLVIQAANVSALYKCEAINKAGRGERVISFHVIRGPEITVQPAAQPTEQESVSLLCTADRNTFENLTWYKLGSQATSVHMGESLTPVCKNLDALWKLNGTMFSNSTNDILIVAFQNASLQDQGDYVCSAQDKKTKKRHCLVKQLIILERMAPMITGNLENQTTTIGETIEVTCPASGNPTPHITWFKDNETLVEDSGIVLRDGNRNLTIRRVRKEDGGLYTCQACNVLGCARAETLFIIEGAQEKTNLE

human VEGFR3 = biological target: T5, human VEGFR3 (Human, UniProt P35916 25-776, limits assumed); assay: SPR (Biacore), 25 C
T5 construct: also called VEGFR3 Human
T5 sequence (looked up): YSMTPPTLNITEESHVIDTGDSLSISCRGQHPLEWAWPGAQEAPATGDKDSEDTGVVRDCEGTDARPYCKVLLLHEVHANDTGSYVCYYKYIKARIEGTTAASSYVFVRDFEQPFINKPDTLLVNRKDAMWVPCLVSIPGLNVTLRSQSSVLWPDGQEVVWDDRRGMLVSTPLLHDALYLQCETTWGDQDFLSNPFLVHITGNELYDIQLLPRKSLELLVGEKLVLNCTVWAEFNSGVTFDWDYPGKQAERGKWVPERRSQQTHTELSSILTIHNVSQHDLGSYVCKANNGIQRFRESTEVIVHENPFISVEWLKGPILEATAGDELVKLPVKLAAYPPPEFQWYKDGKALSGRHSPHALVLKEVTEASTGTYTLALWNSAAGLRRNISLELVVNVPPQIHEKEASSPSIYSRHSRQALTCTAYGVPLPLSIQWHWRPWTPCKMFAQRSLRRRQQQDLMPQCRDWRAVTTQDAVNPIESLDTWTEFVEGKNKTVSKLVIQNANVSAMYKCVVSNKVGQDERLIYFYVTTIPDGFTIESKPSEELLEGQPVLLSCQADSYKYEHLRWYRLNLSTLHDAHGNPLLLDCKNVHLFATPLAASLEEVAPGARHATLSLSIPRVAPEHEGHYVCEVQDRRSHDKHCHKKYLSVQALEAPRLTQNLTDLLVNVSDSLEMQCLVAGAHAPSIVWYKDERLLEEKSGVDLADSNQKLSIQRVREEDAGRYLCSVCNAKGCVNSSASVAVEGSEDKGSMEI

[2] = biological target: T6, human VEGFR1 (SPR analyte/ligand) (human, UniProt P17948 27-758, limits assumed); assay: SPR (Biacore), 25 C
T6 construct: also called VEGFR1 Human; Flt-1
T6 sequence (P17948 27-758 limits assumed): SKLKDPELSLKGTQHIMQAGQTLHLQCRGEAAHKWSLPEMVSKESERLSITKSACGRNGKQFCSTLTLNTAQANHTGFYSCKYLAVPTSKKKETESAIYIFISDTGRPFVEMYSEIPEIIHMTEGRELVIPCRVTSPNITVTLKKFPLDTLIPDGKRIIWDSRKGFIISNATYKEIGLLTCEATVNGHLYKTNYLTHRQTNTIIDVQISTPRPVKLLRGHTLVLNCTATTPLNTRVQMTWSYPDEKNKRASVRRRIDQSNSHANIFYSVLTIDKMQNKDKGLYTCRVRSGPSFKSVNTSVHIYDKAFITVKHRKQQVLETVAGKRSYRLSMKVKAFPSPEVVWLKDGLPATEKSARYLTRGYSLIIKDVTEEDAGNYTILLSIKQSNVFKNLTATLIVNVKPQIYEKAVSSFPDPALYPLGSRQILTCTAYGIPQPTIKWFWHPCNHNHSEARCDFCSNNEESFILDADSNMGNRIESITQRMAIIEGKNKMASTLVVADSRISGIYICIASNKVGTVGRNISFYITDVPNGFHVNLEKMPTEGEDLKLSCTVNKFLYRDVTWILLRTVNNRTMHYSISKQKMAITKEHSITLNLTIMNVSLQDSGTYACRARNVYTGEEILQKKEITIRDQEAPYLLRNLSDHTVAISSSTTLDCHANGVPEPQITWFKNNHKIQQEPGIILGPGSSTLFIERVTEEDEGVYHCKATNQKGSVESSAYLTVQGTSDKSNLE

mouse VEGFR1 [3] = biological target: T1, mouse VEGFR1; assay: SPR (Biacore), 25 C, n=4

B1: Antibody III (antibody)
heavy: QVQLKESGPGLVRPSETLSLTCTVSGFSLSDYSLSWVRRPSGKGPEWLGRLWFDGDTTYNSAFKSRLTISRDTSKDQVFLKMNSLQTDDTGTYYCTRDDRDFDYWGQGVMVTVSSAETTAPSVYPLAPGTALKSNSMVTLGCLVKGYFPEPVTVTWNSGALSSGVHTFPAVLQSGLYTLTSSVTVPSSTWPSQTVTCNVAHPASSTKVDKKIVPRNCGGDCKPCICTGSEVSSVFIFPPKPKDVLTITLTPKVTCVVVDISQDDPEVHFSWFVDDVEVHTAQTRPPEEQFNSTFRSVSELPILHQDWLNGRTFRCKVTSAAFPSPIEKTISKPEGRTQVPHVYTMSPTKEEMTQNEVSITCMVKGFYPPDIYVEWQMNGQPQENYKNTPPTMDTDGSYFLYSKLNVKKEKWQQGNTFTCSVLHEGLHNHHTEKSLSHSPGK
light: DIVMTQTPVSMSVSLGGQVSISCRSSQSLVNNNGNTYLSWYIQKPSQSPQLLIYKVSNRVSGISDRFSGSGSGTDFTLKINKIEPDDLGVYYCGQNTQYPLTFGSGTKLEIKRADAAPTVSIFPPSTEQLATGGASVVCLMNNFYPRDISVKWKIDGTERRDGVLDSVTDQDSKDSTYSMSSTLSLTKADYESHNLYTCEVVHKTSSSPVVKSFNRNEC
notes: also called Ab III; Antibody 3
- Kd (mouse VEGFR1 [1]): 0.032 nM
- koff (mouse VEGFR1 [1]): 1.87e-05 s⁻¹

B2: Antibody IV (antibody, mouse IgG1, kappa)
heavy: QVQLKESGPGLVRPSETLSLTCTVSGFSLSDYSLSWVRRPSGKGPEWLGRLWFDGDTTYNSAFKSRLTISRDTSKDQVFLKMNSLQTDDTGTYYCTRDDRDFDYWGQGVMVTVSSAKTTPPSVYPLAPGSAAQTNSMVTLGCLVKGYFPEPVTVTWNSGSLSSGVHTFPAVLQSDLYTLSSSVTVPSSTWPSETVTCNVAHPASSTKVDKKIVPRDCGCKPCICTVPEVSSVFIFPPKPKDVLTITLTPKVTCVVVDISKDDPEVQFSWFVDDVEVHTAQTQPREEQFNSTFRSVSELPIMHQDWLNGKEFKCRVNSAAFPAPIEKTISKTKGRPKAPQVYTIPPPKEQMAKDKVSLTCMITDFFPEDITVEWQWNGQPAENYKNTQPIMDTDGSYFVYSKLNVQKSNWEAGNTFTCSVLHEGLHNHHTEKSLSHSPG
light: DIVMTQTPVSMSVSLGGQVSISCRSSQSLVNNNGNTYLSWYIQKPSQSPQLLIYKVSNRVSGISDRFSGSGSGTDFTLKINKIEPDDLGVYYCGQNTQYPLTFGSGTKLEIKRADAAPTVSIFPPSSEQLTSGGASVVCFLNNFYPKDINVKWKIDGSERQNGVLNSWTDQDSKDSTYSMSSTLTLTKDEYERHNSYTCEATHKTSTSPIVKSFNRNEC
notes: also called Ab IV; Antibody 4
- binding result (mouse VEGFR3): no binding (tested: ~200 nM)
- binding result (human VEGFR2): no binding (tested: ~200 nM)
- binding result (mouse VEGFR2): no binding (tested: ~200 nM)
- binding result (human VEGFR3): no binding (tested: ~200 nM)
- binding result [2]: no binding (tested: ~200 nM)
- Kd (mouse VEGFR1 [3]): ≤ 0.018 nM
- koff (mouse VEGFR1 [3]): < 1e-05 s⁻¹
